From patent US20240101645A1 (HENRY M JACKSON FOUNDATION FOR THE ADVANCEMENT OF MILITARY …, published 2024)
Numbering of substitutions follows the chain as printed.

T1: HCoV-229E spike antigens (bead panel) (HCoV-229E, UniProt P15423 16-1115)
T1 sequence: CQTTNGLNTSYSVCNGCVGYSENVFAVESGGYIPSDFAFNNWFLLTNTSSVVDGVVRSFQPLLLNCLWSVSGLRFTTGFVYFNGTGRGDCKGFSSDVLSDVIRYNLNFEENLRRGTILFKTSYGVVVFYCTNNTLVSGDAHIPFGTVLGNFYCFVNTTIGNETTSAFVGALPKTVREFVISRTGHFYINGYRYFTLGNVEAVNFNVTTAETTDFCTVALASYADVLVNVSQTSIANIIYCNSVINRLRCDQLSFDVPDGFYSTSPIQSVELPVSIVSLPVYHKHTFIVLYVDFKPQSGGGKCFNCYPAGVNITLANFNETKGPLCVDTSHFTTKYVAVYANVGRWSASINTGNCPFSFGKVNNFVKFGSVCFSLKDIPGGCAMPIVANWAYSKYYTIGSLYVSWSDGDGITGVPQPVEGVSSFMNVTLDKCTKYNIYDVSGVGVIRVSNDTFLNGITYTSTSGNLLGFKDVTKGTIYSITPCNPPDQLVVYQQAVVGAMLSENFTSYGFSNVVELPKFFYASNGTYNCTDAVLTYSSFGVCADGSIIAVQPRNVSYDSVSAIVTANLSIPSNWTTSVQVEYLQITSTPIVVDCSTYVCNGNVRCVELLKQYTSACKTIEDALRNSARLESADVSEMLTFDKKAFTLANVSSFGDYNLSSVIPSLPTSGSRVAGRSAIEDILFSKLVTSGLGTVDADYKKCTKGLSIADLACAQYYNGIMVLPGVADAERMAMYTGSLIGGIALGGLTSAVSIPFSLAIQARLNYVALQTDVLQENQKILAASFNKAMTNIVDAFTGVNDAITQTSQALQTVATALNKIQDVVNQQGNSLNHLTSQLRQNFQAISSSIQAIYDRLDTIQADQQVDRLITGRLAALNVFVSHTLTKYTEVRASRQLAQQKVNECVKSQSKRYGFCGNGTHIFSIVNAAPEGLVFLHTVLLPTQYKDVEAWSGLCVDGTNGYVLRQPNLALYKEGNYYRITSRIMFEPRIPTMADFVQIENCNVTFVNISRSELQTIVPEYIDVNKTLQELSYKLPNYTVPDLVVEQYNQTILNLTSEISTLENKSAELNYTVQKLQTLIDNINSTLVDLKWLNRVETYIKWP

T2: HCoV-NL63 spike antigens (bead panel) (HCoV-NL63, UniProt Q6Q1S2 19-1296)
T2 sequence: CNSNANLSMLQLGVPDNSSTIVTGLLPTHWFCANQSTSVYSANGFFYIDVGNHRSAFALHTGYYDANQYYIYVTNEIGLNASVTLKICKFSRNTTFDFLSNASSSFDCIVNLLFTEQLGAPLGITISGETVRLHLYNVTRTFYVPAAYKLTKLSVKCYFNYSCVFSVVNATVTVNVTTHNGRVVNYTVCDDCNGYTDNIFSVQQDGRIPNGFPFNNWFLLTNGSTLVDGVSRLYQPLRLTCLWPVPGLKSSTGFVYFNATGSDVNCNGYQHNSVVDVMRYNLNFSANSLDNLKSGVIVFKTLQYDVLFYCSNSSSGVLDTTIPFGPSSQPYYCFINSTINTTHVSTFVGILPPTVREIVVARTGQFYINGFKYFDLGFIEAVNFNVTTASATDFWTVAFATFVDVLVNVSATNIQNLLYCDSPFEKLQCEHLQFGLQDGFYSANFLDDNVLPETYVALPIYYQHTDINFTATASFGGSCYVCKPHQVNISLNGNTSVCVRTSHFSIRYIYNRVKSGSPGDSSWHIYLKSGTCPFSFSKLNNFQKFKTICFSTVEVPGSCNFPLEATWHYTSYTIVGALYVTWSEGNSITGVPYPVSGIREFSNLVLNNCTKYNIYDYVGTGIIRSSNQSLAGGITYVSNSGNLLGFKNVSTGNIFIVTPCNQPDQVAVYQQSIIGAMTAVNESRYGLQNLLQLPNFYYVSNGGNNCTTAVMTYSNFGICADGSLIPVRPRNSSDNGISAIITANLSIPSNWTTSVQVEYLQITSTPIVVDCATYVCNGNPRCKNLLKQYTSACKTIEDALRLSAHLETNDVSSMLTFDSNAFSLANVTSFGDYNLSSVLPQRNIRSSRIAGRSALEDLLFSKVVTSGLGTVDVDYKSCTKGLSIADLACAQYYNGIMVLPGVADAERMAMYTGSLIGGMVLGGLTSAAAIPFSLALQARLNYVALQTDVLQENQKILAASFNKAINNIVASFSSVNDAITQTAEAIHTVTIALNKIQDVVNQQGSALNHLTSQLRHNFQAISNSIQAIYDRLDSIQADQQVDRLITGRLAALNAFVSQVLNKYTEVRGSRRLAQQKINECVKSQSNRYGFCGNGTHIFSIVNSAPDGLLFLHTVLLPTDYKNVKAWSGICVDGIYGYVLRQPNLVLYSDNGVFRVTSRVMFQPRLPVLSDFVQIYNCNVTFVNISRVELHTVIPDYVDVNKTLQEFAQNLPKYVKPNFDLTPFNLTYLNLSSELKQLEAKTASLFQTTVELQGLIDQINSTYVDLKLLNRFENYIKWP

B1: COV_3053 (antibody, V domains shown)
VH: EVQLVESGGGLVQPGRSLRLSCTASGFTLGDYAMTWVRQAPGKGLEWLGIIRNKRYGETKQYAASVKGRFTFSRDDSKGIGYLQRLSLKIEDTGVYYCTREHIVRDDAFDVWGQGTTVTVSS
VL: DIVMTQSPDSLAVSLGERATINCKSSQSVLYSSNNKNYIAWYQQRPGQPPKLLIYWTSTRASGVPDRFSGSGSGTDFALTISSLQAEDVAVYYCQQYYTIPRTFGQGTKVEIK
notes: human IgG1
B2: COV_2193 (antibody, V domains shown)
VH: QVQLVQSGAEVKKPGASVKVSCKVSGYTLTDLSMHWVRQTPGKGLEWMGGFDAEDGETIYAQNFQGRVTMTEDTSIDVAYMELSSLRSEDTAVYYCATGSVGPDYWGQGTLVTVSS
VL: SSELTQDPAVSVALGQTVRITCQGDSLRSYYASWFQQKPGQAPVLVIYLKNDRPSGIPDRFSGSSSGNTASLTITGAQAEDEADYYCNSRDSSGNHQVFGGGTKLTVL
notes: human IgG1
B3: COV_1025 (antibody, V domains shown)
VH: QVQLVESGGGVVQPGRSLRLSCAASGFTFNTYAMHWVRQAPGKGLEWVAIISYDGGNKYYADSMKGRFTISRDNSKNTLYLQMNSLRAEDTAVYYCARARTGNYYYGMDVWGQGTTVTVSS
VL: not shown
notes: human IgG1
B4: COV_1118 (antibody, V domains shown)
VH: EVQLVESGGGLVKPGGSLRLSCAASGFSFSNYNMNWVRQAPGKGLEWVSYISSSSSYIYYADSVKGRFTISRDNAKNSLYLQMNSLRGEDTAVYSCAREASGAYYFDRSGYFDYWGQGTLVTVSP
VL: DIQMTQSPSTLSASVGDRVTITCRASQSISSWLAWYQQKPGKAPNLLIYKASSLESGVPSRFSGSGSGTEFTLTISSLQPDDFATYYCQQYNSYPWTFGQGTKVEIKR
notes: human IgG1
B5: COV_1154 (antibody, V domains shown)
VH: B4 VH with S28R, N31D
VL: DIQMTQSPSTLSASVGDRVTITCRASQSISSWLAWYQQKPGKAPNLLIYKASSLESGVPSRFSGSGSGTEFTLTISSLQPYDFATYYCQQYNSYPWAFGQGTKVEMKR
notes: human IgG1
B6: COV_1136 (antibody, V domains shown)
VH: B4 VH with S28T, N31D, Y32C, Y50S, S54R, G88A
VL: B5 VL with Y81D, S93T, A97T, M106I
notes: human IgG1
B7: COV_2137 (antibody, V domains shown)
VH: EVQLVESGGGLVKPGGSLRLSCAASGFTFSSYTMNWVRQAPGKGLEWVSSISSGSSFIYYADSLRGRFTISRDNAKNSLYLQMNSLRAEDTAVYYCARAPEPQSVIYAYWYFDLWGRGTLVTVSS
VL: QSALTQPASVSGSPGQSITFSCTGTSSDVGSYNLVSWYQQYPGKAPKLMIYEVNKRPSGVSNRFSGSKSGNTASLTISGLQAEDEADYYCCSYAGSSTFYVFGTGTKVTVLG
notes: human IgG1
B8: COV_1145 (antibody, V domains shown)
VH: QVQLVESGGGVVQPGRSLRLSCAASGFTFSSYGMHWVRQAPGKGLEWVAVIWYDGSNKYYADSVKGRFTISRDNSKNTLYLQMNSLRVEDTAVYYCAREGQLGATGLDCWGQGTLVSVSS
VL: SYELTQPPSVSVSPGQTARITCSGDALPKKYAYWYQQKSGQAPVLVIYEDSKRPSGIPERFSGSSSGTMATLTISGAQVEDEADYYCYSTDNSGNHWVFGGGTKLTVLG
notes: human IgG1
B9: COV_1050 (antibody, V domains shown)
VH: QVQLVESGGGVVQPGRSLRLSCAASRFTFSSYAMHWVRQAPGKGLEWVAVISFDGSNKYYADSVKGRFTIFRDNSKNTLSLQMNSLRTEDTAMYYCASPAGYYESLWGQGTLVTVSS
VL: SYELTQPPSVSVSPGQTARVTCSGDALSKQYGFWYQQKPGQAPTLVIYKDTERPSGIPERFSGSGSGTTVTLTISGVQAEDEADYYCQSTDNSGRWVFGGGTKLTVLG
notes: human IgG1
B10: COV_2100 (antibody, V domains shown)
VH: EVQLVESGGGLVQPGGSLRLSCAASGFTFSSYDMYWVRQATGKGLEWVSAIGTAGDTYYPGSVKGRFTISRENAKNSLYLRMNSLRAGDTAVYFCARADKNTAMFFDYWGQGTLVTVSS
VL: DIQMTQSPSSLSASVGDRVTITCRASQNINNFLHWYQQKPGNAPKLLIYAASTLQSGVPSRFSGSGSGTDFTLTISSLQPEDFATYYCQQSYSTPGGTFGGGTKVEIK
notes: human IgG1
B11: COV_3088 (antibody, V domains shown)
VH: EVQLVESGGGLVQPGGSLRLSCAASGFTFSSYDMHWVRQATGKGLEWVSAIGTAGDTYYPGSVKGRFTISRENAKNSLYLQMNSLRAGDTAVYYCARGSGWPPFFDYWGQGTLVTVSS
VL: SYELTQPPSVSVAPGKTARITCGGNNIGSKSVHWYQQKPGQAPVLVIYYDSDRPSGIPERFSGSNSGNTATLTISRVEAGDEADYYCQVWDSSSDHHWVFGGGTKLTVL
notes: human IgG1
B12: COV_2103 (antibody, V domains shown)
VH: EVQLVESGGGVVQPGRSLRLSCGASGFTFSSYGIHWVRQAPGKGLDWVAVIWHDGSQKYYGDSVKGRFTISRDNSKNTLYLQMNRLRAEDTAVYYCARDSGDDYDSSGYPIGNAFDLWGQGTMVTVSS
VL: DIQMTQSPSTLSASVGDRVTITCRASQFINSWLAWYQQKPGKAPKLLIYKASSLETGVPSRFSGSGSGTEFTLTISSLQPDDFATYYCQQYNTYSFTFGPGTKVDIK
notes: human IgG1
B13: COV_2134 (antibody, V domains shown)
VH: EVQLVESGGGVVQPGRSLRLSCAASGFIFSSYGMYWVRQAPGKGLEWVAVIWYDGSNKYYADSVKGRFTISRDNSKNTLYLQMNSLRAEDTAVYYCARDLSSSSGWDDYYYYYGMDVWGQGTTVTVSS
VL: not shown
notes: human IgG1
B14: COV_2196 (antibody, V domains shown)
VH: QVQLVQSGAEVKKPGASVKVSCKVSGYTLIELSMHWVRQAPGKGLEWMGGFDPEDAKTIYAQKFQGRVTMTEDTSTDTAYMELSSLTFEDTAVYYCATTPAFMAAAGDFDYWGQGTLVTVSS
VL: QPVLTQPSSVSVSPGQTATITCSGDVLAKKYARWFQQKPGQAPMLVIYKDTERPSGIPERFSGSSSGTTVTLTINGAQVEDEADYYCYSAAAWVFGGGTKLTVL
notes: human IgG1

Each binder was assayed against T1, HCoV-229E spike antigens (bead panel) (assay: multiplex bead assay).

Row | Binder | binding result
1 | B1 | no binding
2 | B2 | no binding
3 | B3 | no binding
4 | B4 | no binding
5 | B5 | no binding
6 | B6 | no binding
7 | B7 | no binding
8 | B8 | no binding
9 | B9 | no binding
10 | B10 | no binding
11 | B11 | no binding
12 | B12 | no binding
13 | B13 | no binding
14 | B14 | no binding

What follows are binders tested against T2, HCoV-NL63 spike antigens (bead panel) (assay: multiplex bead assay).

Row | Binder | binding result
15 | B1 | no binding
16 | B2 | no binding
17 | B3 | no binding
18 | B4 | no binding
19 | B5 | no binding
20 | B6 | no binding
21 | B7 | no binding
22 | B8 | no binding
23 | B9 | no binding
24 | B10 | no binding
25 | B11 | no binding
26 | B12 | no binding
27 | B13 | no binding
28 | B14 | no binding
